Laboratory results published in the DeepSol protein solubility set.

assay: soluble on expression in E. coli; label from the status in PepcDB or PDB records

Sequence	soluble on expression in E. coli
GYKKIPKKKLKDLMVELYVADGHFANIYDPKLTDSVREAVYTNLFAKYGTTRMDYDSTLMWYGRHDLEEYIAICQSVRDELEKQRIDLDKQITLEREKKGMDMLDGSFYELDSINMLAGDSTCFYRPEMPFLNRSFIITPGTAYKEGTRLEFVTRLRGLQLRPDATMEMFLQLVCTDNTVLTVSRPVNPGINMLTTSVPDSASVSRVYGYLRGFPDSAGIMSLSPFVIDSFSLRKF	not soluble
HGGEAHMVPMDKTLKEFGADVQWDDYAQLFTLIKDGAYVKVKPGAQTAIVNGQPLALQVPVVMKDNKAWVSDTFINDVFQSGLDQTFQVEKRPHPLNALTADEIKQAVEIVKASADFKPNTRFTEISLLPPDKEAVWAFALENKPVDQPRKADVIMLDGKHIIEAVVDLQNNKLLSWQPIKDAHGMVLLDDFASVQNIINNSEEFAAAVKKRGITDAKKVITTPLTVGYFDGKDGLKQDARLLKVISYLDVGDGNYWAHPIENLVAVVDLEQKKIVKIEEGPVVPVPMTARPFDGRDRVAPAVKPMQIIEPEGKNYTITGDMIHWRNWDFHLSMNSRVGPMISTVTYNDNGTKRKVMYEGSLGGMIVPYGDPDIGWYFKAYLDSGDYGMGTLTSPIARGKDAPSNAVLLNETIADYTGVPMEIPRAIAVFERYAGPEYKHQEMGQPNVSTERRELVVRWISTVGNYDYIFDWIFHENGTIGIDAGATGIEAVKGVKAKTMHDETAKDDTRYGTLIDHNIVGTTHQHIYNFRLDLDVDGENNSLVAMDPVVKPNTAGGPRTSTMQVNQYNIGNEQDAAQKFDPGTIRLLSNPNKENRMGNPVSYQIIPYAGGTHPVAKGAQFAPDEWIYHRLSFMDKQLWVTRYHPGERFPEGKYPNRSTHDTGLGQYSKDNESLDNTDAVVWMTTGTTHVARAEEWPIMPTEWVHTLLKPWNFFDETPTLGALKKDK	soluble
HHASPRKQGKKENGPPHSHTLKGRRLVFDN	soluble
HHMKLYIMPGACSLADHILLRWSGSSFDLQFLDHQSMKAPEYLALNPSGAVPALQVGDWVLTQNAAILNYITDIAPAERGLSGDGSLKARAEINRWIAFSNSDVHPMYWALFGGTAYLQDPQMIARSQDNARQKLRVLYQRADAHLKHHNWLANGQRSGADAYLYVTLRWAKKVGVDLSSLDALSAFFERMEADPGVQAALQAEGLI	soluble
HMSFSHVCQVGDPVLRGVAAPVERAQLGGPELQRLTQRLVQVMRRRRCVGLSAPQLGVPRQVLALELPEALCRECPPRQRALRQMEPFPLRVFVNPSLRVLDSRLVTFPEGCESVAGFLACVPRFQAVQISGLDPNGEQVVWQASGWAARIIQHEMDHLQGCLFIDKMDSRTFTNVYWMKVND	soluble
HMTMEQFLTSLDMIRSGCAPKFKLKTEDLDRLRVGDFNFPPSQDLMCYTKCVALMAGTVNKKGEFNAPKALAQLPHLVPPEMMEMSRKSVEACRDTHKQFKESCERVYQTAKCFSENADGQFMWP	soluble
HPICEVSKVASHLEVNCDKRNLTALPPDLPKDTTILHLSENLLYTFSLATLMPYTRLTQLNLDRAELTKLQVDGTLPVLGTLDLSHNQLQSLPLLGQTLPALTVLDVSFNRLTSLPLGALRGLGELQELYLKGNELKTLPPGLLTPTPKLEKLSLANNNLTELPAGLLNGLENLDTLLLQENSLYTIPKGFFGSHLLPFAFLHGNPWLCNCEILYFRRWLQDNAENVYVWKQGVDVKAMTSNVASVQCDNSDKFPVYKYPGKGCPTLGDEGDTDLYDYYPEEDTEGDKVR	soluble
HYIFPHARIKITRDSKDHTVSGNGLGIRIVGGKEIPGHSGEIGAYIAKILPGGSAEQTGKLMEGMQVLEWNGIPLTSKTYEEVQSIISQQSGEAEICVRLDLNM	soluble
IDKIENYEQSTSQLREEIKTLYNEVIDIGKKLSQERRRVARELRDHIVSEIQNLQMKDANLEISFKPLDEPTIEGIEFVEFLISPNRGEPLKSLNKIASGGELSRIMLALKSIFVKSRGQTAILFDEVDSGVSGQAAQKMAEKMRDIAQYIQVICISHLPQVASMSDHHLLISKASNADRTTTQVKELKDENKIDEIARMISGASVTELTRENAKEMIKQNHNI	not soluble
IDRKVLSQLRNRFLSLNDGRYARALEGMSTRQQSVLTLLPLFFHVNHPLLPGYVSGSTPAGVSHYEPDTLALAEAQRLTRSFSYKARHGNPPQPIHGLFLMGSLGTLAQADQSDMDVWVCHDSELDLEAIAELRKKCQALEAWAATMGAEAHFFLIDPQRFKSGERDSQLSSDDCGTTQHYLLLDEFYRTAIWLAGRTPMWWMVPVYEEQNYEDYTYTLLSKRFIRASEVLDLGPMSHIPATEFIGAGLWQLFKGIGSPYKSVLKLLLIEVYSSEHPRVQCLSLRFKQAVFANQLDLDELDPYVVVYRRIEEHLQARNEPERLELVRRSLYLKVNKKLTGSTRQRNIGWQRLLLARLTSEWGWDERQLTLLDSRSQWKVRQVASERRALVNELNYSYRFQTRFARAQSTADTLDARDLTILGRRLYAAYERKAGKVEFINPGIAPDLAEDTLTLVHSPDKREPGKHQWALYNGNLGIHEWANFSPIKRSRELLELLAWCHRNNVIDTTTRVALHPGTSDLSEFELFNLLGALQQSIELPLPEVSDDELLKPSAPSEILLLINVGVDPLRHHRDLNILMTTERTDSLSYAGVRENLVLTLDQITLNTWNETLVSRYDGPHALLDCMSELLGSLPTSGKQPQIRVRCFCHNRASAIAQRVEELISTAQLLLARQLNHRYLIQVQQQYHVLEIKPGQVGHVVVNSLPGLFKYLGEELPRYSPLHLDPQALDGHDLALILPLGQPECIQVFYRINEPDADLYVLDEHNSLWHQRVPYHDEQSLLTPLQRFFHSLVYRRGASLPLDD	not soluble
IFNGRPAQKGTTPWIAMLSHLNGQPFCGGSLLGSSWIVTAAHCLHQSLDPKDPTLRDSDLLSPSDFKIILGKHWRLRSDENEQHLGVKHTTLHPQYDPNTFENDVALVELLESPVLNAFVMPICLPEGPQQEGAMVIVSGWGKQFLQRFPETLMEIEIPIVDHSTCQKAYAPLKKKVTRDMICAGEKEGGKDACAGDSGGPMVTLNRERGQWYLVGTVSWGDDCGKKDRYGVYSYIHHNKDWIQRVTGVRN	soluble
IGDLSYSVSGNIATNNNEIVTLAGSDNMIQNGGDVVRYILKEGEAIGSYYGLETDGLYTQEEIDAGHYYKYGRKPNAGDIKYVPQRENVEWGDDITDDDRTIIGKDVPDFTYGININLQWKNFELSAFGQGVSGTSVAFESEQVFAFMLNSNPRKYHLSRWNEDNPNPNAACPRLYGGNYYDEYNKHFSDYQLFDADYFRIKTISLGYMVPKDAVTRWGLSSLKFFLTGENLFTFRADKDMKDFDPESSTGRGISAFGAKSVAFGVNVSF	not soluble
IGIVNDMPLAVEALRRALAFEPQHQIVWVASNGAEAVTQCAADTPDVVLMDLLMPVMDGVEATRRIMAESPCAIVIVTVDIEQNVHRVFEAMGYGALDAVNTPALGIGNPQTAAAPLLRKIQNVGWLIGQRDNRGKVQVVPPKAGGARQRLVAIGASAGGPASLAVLLKQLPASFNAAVVLVQHVDEVFAAGMAEWLASESKLPVRLARDGEPPIPGQILLAGTNNHIRLLRNGSLVYTAEPRSFVYRPSIDVFFESVANYWRGDAVGVLLTGMGRDGAQGLKQMRERGFLTIAQDQASCAVYGMPKAAAAIDAAVQILSLEKIA	not soluble
IKDFNYGVKFVLSDDQRKVTRYPNEELNRNQWYAGRMDGLVWGYETVGIAKTDAEMEAHLASLPNGGQSQLGSKWAAGDIMYKDLNGDGKISSGDGTLNDLGDLKVVANTQLRFKYGLTLDASWKGFDFSAFFQGVGKRDVVVGGPYFWGANGQGMWQAAAFKDHMDYFRPEDTESVFGPNVDAYYPRVIFGGGSSEGGKNTLTQSRYVQNGAYIRLKNLQLGYTLPSTITKKFAVNSLRVYVSGDNLWTGTKMRVFDPEVLGSTGDAGKAYPLARVWSVGLNVNF	not soluble
IKDFNYRIGFNLYDSQSEITKFNNETNLLGTYRKGQKIGEIWGYVTDRFYREDDFNADGTLKEGIPIPKGVGKVYPGDILYKNFDDDASTIWSGKGTADDPGDQRIIGNSTPRFHYGINAGLSWKGFDLSVFLRGVGKRDFWRTDQIAWPTGTWGSLFKETLDFWTPEHTDAYFPRVYANNGVNTASNRWKQTKYLANAAYLKLQNITLSYTLPKTWAKQICFDEVKVFFSGENLHTWDHLPEGLESDMLSKGAWEYPFMKKFSLGFNVTF	not soluble
IKKEPEKPIDREKTCPLLLRVFTTNNGRHHRMDEFSRGNVPSSELQIYTWMDATLKELTSLVKEVYPEARKKGTHFNFAIVFTDVKRPGYRVKEIGSTMSGRKGTDDSMTLQSQKFQIGDYLDIAITPPNRAPPTSGRMRPY	not soluble
IKPTYQGHVTVIIGRNDSKSSTNEQYNDVMMSQNLTKTYAQIAESRSVASKTVSKLSNGTTIDQVSKVVSVTPETGTQIIDITANAKSPEEAADLANDFSDSFVAVSKEVYTAGDARIIDRATAPKSPIKPKK	not soluble
INALVIGDLMLDQYLWGKAERISPEAPVQVVDVTREEIRIGGAGNVANNLVALGCRVSVASVVGGDENGTILLHAFSGKGIDVTGIVEDPSRTTSRKTRVLASNQQIVRIDRESRDEIGPDNERRIVDYLNAHGDRFNVILVSDYLKGVLTPTLLAEVIAFARKREIPVVVDPKGSDYAKYRGATVLTPNRKEAEAASGIAIRDDESLCRAGERLLETADLTALVITRSEEGMSLFLRGGQVVHIPTYAREVFDVTGAGDTVLAVLGMALAGGVGFADGARLANVAAGVAVGKVGTSTVSPAEIVGSLG	not soluble
INQPVIETERFDLRPLRKSDMGLIEHYARDERVARMTTSIPHPLPPGMAEGFVARAMSEERTEDVWAMDATRDGGPELMGLISLERMDRNQSEVGYWVAPVFWNTGIASMAVEALVNANPLGNATMFASVFQDNPASARVLTHCGFQYLGDAESYSVARDAAVPTWTYSRKL	soluble
INTVNLINQMKTLAAQAEGIKPDSGLNHASFSSVFQQALNQVNELSQTADSLKTRFEIGDPNVSLGEVMIASQKSNLGFEATLRVRNKLVQAYQDIMNMPV	not soluble
ISVDTLNTKELIEAINLGADMILSVDAGNLDELIPYLKDSETAVVVLPTNYKTNYVPETIEGKIKSLEENIKKLIDAGIEKIVADPILEPINNAGCSFIESVIACREFKKRNKLPLFFGVGNVTELFDADSNGVNALLAAIGAEIGANILFTPEASAKCKFSIKELKIASKMMFLAKKRNSLPKDIGYNLINYKDKRFEEEITFNSYNIPIIKAEEDERQILDEGSFKIEIDRKNKEIVAIYFNKRREPVLIIRGKKPKEIYETAIRLNLIKKLDHASYFGRELAKAEIALRIGKKYNQDFDLF	not soluble
KAAPAEPATGPFNVSATSPVTGQNYQMSCTAHDHVMRCSGGNNAIVLLTPNPTGVVEEKTYEYALEGTVVLKNTAEVLEGLKPPNNDNPNNEYILLWFDNPMDVAGKHAGNRDQLSTKNVRYLSLGKKETTQYGPLPDTTGPWRQYVGKRIRLHVNSDNMRYPSDTGMPLGALRLEEAPDIRIEEL	not soluble
KARLIYNPTSGQEIMKKNVAEVLDILEGFGYETSAFQTTPTKNSARDEATRAAQAGFDLIVAAGGDGTINEVVNGIAPLKRRPKMAIIPTGTTNDFARALKIPRGNPIEATKLIGKNQIVKMDIGQAQED	not soluble
KDEIGVIGIDDAPFNKFDKEALIVGTYMRGNKLVDEISFKKIEKDGFDSTEKILKIVKDKHFTKINAIFLDGVTFGGFNIADIVKIYNETKIPVIAVMEKEPDLLKMKSALKKYFFDFPEKIEMLESFPKPEPFENIFIQCIGISFEDACKLIKKTRLRSKIPECLRISHLVGRGFLNME	not soluble
